Data reported in US20220280636A1.

What was measured:
[1] = target: human whole molecule IgG (human); test: SPR; IgG amine coupled to CM5 chip, construct flowed at 750 ug/ml; end-point RU of association phase
[2] = target: mouse whole molecule IgG (mouse); test: as above
[3] = target: rabbit whole molecule IgG (rabbit); test: as above
[4] = target: guinea pig whole molecule IgG (guinea pig); test: as above
[5] = target: human IgG Fc (human); test: as above
[6] = target: human whole molecule IgG (human); test: SPR; IgG amine-coupled to CM5 chip, construct flowed at 750 ug/ml; end-point RU of association phase
[7] = target: rabbit whole molecule IgG (rabbit); test: as above
[8] = target: human IgG Fc (human); test: as above
[9] = target: human whole molecule IgG (human); test: as above; remark: listed apart in the source
[10] = target: rabbit whole molecule IgG (rabbit); test: as above; remark: listed apart in the source
[11] = target: human IgG Fc (human); test: as above; remark: listed apart in the source

| Substance | RU Post Association [1] | RU Post Association [2] | RU Post Association [3] | RU Post Association [4] | RU Post Association [5] | RU Post Association [6] | RU Post Association [7] | RU Post Association [8] | RU Post Association [9] | RU Post Association [10] | RU Post Association [11] |
| --- | --- | --- | --- | --- | --- | --- | --- | --- | --- | --- | --- |
| gD-2t 339 (from UniProt Q69467 26-339) | 2 RU | 4 RU | 11 RU | 2 RU | 4 RU | 3 RU | 2 RU | 1 RU | 4 RU | 1 RU | 2 RU |
| gE-1t 419/gI-1t 269 (from UniProt P04488 21-419; P06487 21-276) | 232 RU | 11 RU | 195 RU | 19 RU | 216 RU |  |  |  |  |  |  |
| gE-2t 24-405 (from UniProt P89475 23-402) | 7 RU | 4 RU | 6 RU | 5 RU | 8 RU |  |  |  |  |  |  |
| gE-2t 24-405/gI-2t 262 (from UniProt P89475 23-402; P06764 21-262) | 136 RU | 6 RU | 142 RU | 8 RU | 95 RU |  |  |  |  |  |  |
| gE-2t 405 (from UniProt P89475 21-402) | 8 RU | 4 RU | 6 RU | 5 RU | 5 RU |  |  |  |  |  |  |
| gE-2t 405/gI-2t 262 (from UniProt P89475 21-402; P06764 21-262) | 142 RU | 8 RU | 165 RU | 9 RU | 100 RU |  |  |  |  |  |  |
| gE-2t 414/gI-2t 262 (from UniProt P89475 21-411; P06764 21-262) | 79 RU | 5 RU | 75 RU | 4 RU | 53 RU |  |  |  |  |  |  |
| gE-2t 417/gI-2t 262 (from UniProt P89475 21-414; P06764 21-262) | 52 RU | 10 RU | 46 RU | 9 RU | 41 RU | 53 RU | 45 RU | 43 RU | 133 RU | 138 RU | 98 RU |
